Legend:
[1] = target: Recombinant CHIKV E2 ectodomain protein (corresponding to the CHIKV-LR2006 strain) (Chikungunya virus strain LR2006); test: ELISA, E2 ectodomain coated
[2] = target: Recombinant CHIKV E2 ectodomain protein (corresponding to the CHIKV-LR2006 strain) (Chikungunya virus strain LR2006); test: BLI competition, E2 ectodomain on anti-Penta-His tip; first mAb CHK-84 (f1)
[3] = target: Recombinant CHIKV E2 ectodomain protein (corresponding to the CHIKV-LR2006 strain) (Chikungunya virus strain LR2006); test: BLI competition, E2 ectodomain on anti-Penta-His tip; first mAb 4B8
[4] = target: Recombinant CHIKV E2 ectodomain protein (corresponding to the CHIKV-LR2006 strain) (Chikungunya virus strain LR2006); test: BLI competition, E2 ectodomain on anti-Penta-His tip; first mAb 1O6
[5] = target: Recombinant CHIKV E2 ectodomain protein (corresponding to the CHIKV-LR2006 strain) (Chikungunya virus strain LR2006); test: BLI competition, E2 ectodomain on anti-Penta-His tip; first mAb 1H12
[6] = target: Recombinant CHIKV E2 ectodomain protein (corresponding to the CHIKV-LR2006 strain) (Chikungunya virus strain LR2006); test: BLI competition, E2 ectodomain on anti-Penta-His tip; first mAb CHK-88 (f4)
[7] = target: Recombinant CHIKV E2 ectodomain protein (corresponding to the CHIKV-LR2006 strain) (Chikungunya virus strain LR2006); test: BLI competition, E2 ectodomain on anti-Penta-His tip; first mAb CHK-141 (f2)
[8] = target: Recombinant CHIKV E2 ectodomain protein (corresponding to the CHIKV-LR2006 strain) (Chikungunya virus strain LR2006); test: BLI competition, E2 ectodomain on anti-Penta-His tip; first mAb 5N23
[9] = target: Recombinant CHIKV E2 ectodomain protein (corresponding to the CHIKV-LR2006 strain) (Chikungunya virus strain LR2006); test: BLI competition, E2 ectodomain on anti-Penta-His tip; first mAb CHK-265 (f3)
[10] = target: Recombinant CHIKV E2 ectodomain protein (corresponding to the CHIKV-LR2006 strain) (Chikungunya virus strain LR2006); test: BLI competition, E2 ectodomain on anti-Penta-His tip; first mAb 5F10 (r1)
[11] = target: Recombinant CHIKV E2 ectodomain protein (corresponding to the CHIKV-LR2006 strain) (Chikungunya virus strain LR2006); test: BLI competition, E2 ectodomain on anti-Penta-His tip; first mAb 5M16
[12] = target: Recombinant CHIKV E2 ectodomain protein (corresponding to the CHIKV-LR2006 strain) (Chikungunya virus strain LR2006); test: BLI competition, E2 ectodomain on anti-Penta-His tip; first mAb 5O14
[13] = target: Recombinant CHIKV E2 ectodomain protein (corresponding to the CHIKV-LR2006 strain) (Chikungunya virus strain LR2006); test: BLI competition, E2 ectodomain on anti-Penta-His tip; first mAb 9D14
[14] = target: Recombinant CHIKV E2 ectodomain protein (corresponding to the CHIKV-LR2006 strain) (Chikungunya virus strain LR2006); test: BLI competition, E2 ectodomain on anti-Penta-His tip; first mAb 3A2

Substance: murine CHK-152 (antibody)
- OD [1]: < 0.1 od

Substance: CHK-265 (antibody)
- percent binding of competing mAb in presence of first mAb [2]: 92%
- percent binding of competing mAb in presence of first mAb [3]: 92%
- percent binding of competing mAb in presence of first mAb [4]: 85%
- percent binding of competing mAb in presence of first mAb [5]: 52%
- percent binding of competing mAb in presence of first mAb [6]: 3%
- percent binding of competing mAb in presence of first mAb [7]: 86%
- percent binding of competing mAb in presence of first mAb [8]: 98%
- percent binding of competing mAb in presence of first mAb [9]: 2%
- percent binding of competing mAb in presence of first mAb [10]: -3%
- percent binding of competing mAb in presence of first mAb [11]: 84%
- percent binding of competing mAb in presence of first mAb [12]: 85%
- percent binding of competing mAb in presence of first mAb [13]: 105%
- percent binding of competing mAb in presence of first mAb [14]: 95%

Source: US20180079802A1
